Experiments:
[1] = tested on: Kv2.1 R293S/R294S/R300S (R-1S/R0S/R2S); assay: Omega currents (Iω) of Kv2.1 R-1S/R0S/R2S in Xenopus oocytes, two electrode voltage-clamp; format: cell-based, human
Excerpt: The coding cDNAs of KV2.1 “wild-type” (hereinafter WT) base construct (hKv2.1-m7-c3 is human Kv2.1, residues 1-858, mutated to confer AgTx2 sensitivity and to remove extracellular cysteine residues) was synthesized (Entelchon GmbH) and cloned into the high expression vector pBSTA.
Mutations Kv2.1 R294N (hereinafter R0N), Kv2.1 R300S (hereinafter R2S), Kv2.1 R294C/R300S (hereinafter R0C/R2S), Kv2.1 R293S/R294S (hereinafter R-1S/R0S), Kv2.1 R293S/R294C (hereinafter R-1S/R0C), Kv2.1 R293S/R294S/R300S (hereinafter R-1S/R0S/R2S), Kv2.1 R293S/R294C/R300S (hereinafter R-1S/R0C/R2S) were introduced using the QuikChange® Lightning Site-Directed Mutagenesis Kit (Stratagene) with mutagenic primers according to the manufacturer's instructions. All constructs were checked by restriction site mapping and sequencing.
Transcripted cRNA was produced using the mMessage mMachine kit (Ambion Inc.). Two to four days past injection of cRNA into stage V-VI Xenopus oocytes (NASCO) potassium currents through the alpha pore (Iα) were recorded with the two electrode voltage-clamp technique making use of a TURBO TEC-05× amplifier (npi electronic GmbH). Currents were filtered at 10 kHz and sampled at 20 kHz. The bath solution contained (in mM): NaCl 96, KCl 2, CaCl2 1, MgCl2 1 and HEPES 5 (pH 7.5). Voltage-recording and current-injecting microelectrodes were filled with 3 M KCl and pulled to have resistances between 0.2 and 1 MΩ (see Stork et al., 2007). The pClamp software package v.10.1 (Molecular Devices, Inc.) was used for data acquisition and analysis.
Recording of alpha currents (Iα): Pulses of 100 ms were applied from ˜60 to +60 mV in 10 mV steps at 1 Hz from a holding potential of ˜80 mV to the Kv2.1 channel constructs to measure alpha currents (Iα). Passive leak currents were subtracted online using a P/4 procedure: pClamp software generates a series of scaled-down replica sweeps of the main stimulus waveform. […] The cell's response to the subsweeps is used to calculate the degree of passive cellular current leak. This is then subtracted from acquired data on the associated input signal. Recording of omega currents (Iω): Pulses of 10 ms were applied from a holding potential of ˜80 to ˜300 mV in 20 mV steps at 0.3 Hz to the Kv2.1 channel constructs. Iω were recorded without leak subtraction.
AgTx2 (Sigma Aldrich) was reconstituted according to manufacturer's instructions with 10 mM Tris, pH 7.5, containing 100 mM sodium chloride, 0.1% bovine serum albumin, and 1 mM EDTA. LaCl3 was from Sigma Aldrich; MTSEA, MTSES and MTSET were from Biotium.
La^3+, AgTx2, MTSEA, MTSES and MTSET and were applied to Xenopus oocytes by means of a fast perfusion technique (ScreeningTool as described by Baburin et al., 2006). Origin software v.7.0 (OriginLab Corp.) was employed for data analysis. Inhibition of inward currents was defined as 1−Iω,drug/Iω,control, where Iω,drug is the current response in the presence of a given concentration of lanthanum (La^3+) and Iω, control is the control current through the omega pore. The concentration-inhibition curve was fitted using the Hill equation: Iω,drug/Iω,control=A+[…] where IC50 is the concentration at which Iω inhibition is half-maximal, C is the applied La^3+ concentration, A is the fraction of Iω current that blocked and nH is the Hill coefficient. Data are given as mean±SE (n=number of experiments).

[2] = biological target: T1, Kv2.1 (Homo sapiens, UniProt Q14721); conditions: cited from earlier work; for IC50: Table 5, read-out: IC50, channel Kv2.1
T1 sequence (Q14721 1-858): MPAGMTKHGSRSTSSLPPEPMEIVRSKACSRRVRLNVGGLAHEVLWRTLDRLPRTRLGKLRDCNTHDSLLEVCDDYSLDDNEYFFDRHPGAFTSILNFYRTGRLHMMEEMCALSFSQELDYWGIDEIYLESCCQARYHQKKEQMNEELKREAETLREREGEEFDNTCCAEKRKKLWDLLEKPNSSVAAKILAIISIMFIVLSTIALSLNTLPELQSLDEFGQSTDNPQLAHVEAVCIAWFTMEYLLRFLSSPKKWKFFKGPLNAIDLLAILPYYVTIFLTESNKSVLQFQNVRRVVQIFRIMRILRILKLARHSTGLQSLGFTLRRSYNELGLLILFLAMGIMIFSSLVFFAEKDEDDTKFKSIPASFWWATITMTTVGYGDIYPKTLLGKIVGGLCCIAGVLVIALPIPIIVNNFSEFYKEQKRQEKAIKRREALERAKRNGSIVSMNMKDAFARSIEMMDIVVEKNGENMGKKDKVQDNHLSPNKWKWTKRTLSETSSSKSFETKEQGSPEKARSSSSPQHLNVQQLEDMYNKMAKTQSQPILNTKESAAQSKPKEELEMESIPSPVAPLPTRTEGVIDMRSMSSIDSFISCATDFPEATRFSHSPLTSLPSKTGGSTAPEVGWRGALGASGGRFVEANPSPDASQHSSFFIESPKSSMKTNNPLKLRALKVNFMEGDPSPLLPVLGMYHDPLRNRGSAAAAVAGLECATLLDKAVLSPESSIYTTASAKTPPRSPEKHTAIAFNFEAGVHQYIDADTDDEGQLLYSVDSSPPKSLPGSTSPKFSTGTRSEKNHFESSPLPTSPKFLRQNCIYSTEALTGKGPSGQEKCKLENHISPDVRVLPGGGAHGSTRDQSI

Substance	Inhibition of inward currents at negative potentials (Iω) ([1]; 10 nM AgTx2, after 5 minutes)	IC50 [2] [nM]	Sensitivity of Kv2.1 to the scorpion toxin ([2]; text b541)	Effect on omega current (Iω) ([1]; 100 nM GxTx-1E, 5 minutes application)
Agitotoxin-2 (GVPINVSCTGSPQCIKPCKDAGMRFGKCMNRKCHCTPK) [AgTx2]	not inhibited	> 2000	insensitive	–
Guangxitoxin (EGECGGFWWKCGSGKPACCPKYVCSPKWGLCNFPMP) [GxTx-1E]	–	2	–	enhanced
